Measured values as given in paper PMC10778422, “PI3Kδ Inhibition Potentiates Glucocorticoids in B-lymphoblastic Leukemia by Decreasing Receptor Phosphorylation and Enhancing Gene Regulation”.

Target: GR-AF1-DBD unmodified (Homo sapiens, UniProt P04150 27-506)
Assay: EMSA; reference; Kd plotted in figure only; 5 mM Mg2+; EMSA: 20 mM Tris-HCl pH 8.0, 150 mM KCl, 10% glycerol, 5 mM MgCl2, 1 mM DTT, 1 mM EDTA, 200 ng/uL BSA, 40 ng/uL salmon sperm DNA; dsDNA diluted to 10 nM in this buffer; Hill fit; temperature not given
Conditions: protein: recombinant; tags: His6 (pET28a); chain copies: 2; label: Cy5; blunt

GR-AF1-DBD unmodified, sequence (P04150 27-506): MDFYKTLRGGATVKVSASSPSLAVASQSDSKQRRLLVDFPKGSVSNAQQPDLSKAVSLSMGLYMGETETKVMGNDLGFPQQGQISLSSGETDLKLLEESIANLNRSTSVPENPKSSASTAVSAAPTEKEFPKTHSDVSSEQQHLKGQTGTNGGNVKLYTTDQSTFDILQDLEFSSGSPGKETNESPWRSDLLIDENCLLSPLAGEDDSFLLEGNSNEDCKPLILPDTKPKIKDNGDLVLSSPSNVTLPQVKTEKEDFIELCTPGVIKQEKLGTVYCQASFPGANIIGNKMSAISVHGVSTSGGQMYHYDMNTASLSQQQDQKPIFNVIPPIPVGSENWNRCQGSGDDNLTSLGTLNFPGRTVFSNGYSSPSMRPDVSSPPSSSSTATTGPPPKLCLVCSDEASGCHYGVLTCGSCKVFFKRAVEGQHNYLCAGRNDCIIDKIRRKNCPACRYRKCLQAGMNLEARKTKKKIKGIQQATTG

B1: consensus GR site (dsDNA)
DNA 1: GTACGGAACATCGTGTACTGTAC
DNA 2: GTACAGTACACGATGTTCCGTAC
  binding result: binds
